Laboratory results as given in the array DNA melting data of Ke et al..

Test: melting temperature; melt of duplexes
Conditions: sodium 0.0675 M; strand 1 µM
With “CGACGTGCGCTATGTGCTG+CAGCACATACGGCACGTCG ((((((((..(((((((((+)))))))))..))))))))” the Tm was 50.6 °C. “CGACGTGCAGTATGTGCTG+CAGCACATAAAGCACGTCG ((((((((..(((((((((+)))))))))..))))))))” gave a Tm of 51.7 °C. For “CGACGTGCTATATGTGCTG+CAGCACATCACGCACGTCG ((((((((...((((((((+))))))))...))))))))”, the Tm was 47.9 °C. “CGACGTGCATGATGTGCTG+CAGCACATCTGGCACGTCG ((((((((..(((((((((+)))))))))..))))))))” gave a Tm of 56.1 °C. For “CGACGTGCATTATGTGCTG+CAGCACATCTGGCACGTCG ((((((((...((((((((+))))))))...))))))))”, the Tm was 48.4 °C. Work on “CGACGTGCGGGATGTGCTG+CAGCACATACAGCACGTCG ((((((((.(.((((((((+)))))))).).))))))))” yielded a Tm of 56.5 °C. With “CGACGTGCCCAATGTGCTG+CAGCACATGTGGCACGTCG (((((((((..((((((((+))))))))..)))))))))” the Tm was 56.2 °C. For “CGACGTGCAAAATGTGCTG+CAGCACATCTCGCACGTCG ((((((((.(.((((((((+)))))))).).))))))))”, the Tm was 48.6 °C. “CGACGTGCGTTATGTGCTG+CAGCACATATCGCACGTCG (((((((((.(((((((((+))))))))).)))))))))” showed a Tm of 56.5 °C. Substance “CGACGTGCTTGATGTGCTG+CAGCACATTAAGCACGTCG ((((((((((.((((((((+)))))))).))))))))))” has a Tm of 57.2 °C. “CGACGTGCGCGATGTGCTG+CAGCACATCCGGCACGTCG ((((((((..(((((((((+)))))))))..))))))))” showed a Tm of 55 °C. Work on “CGACGTGCAGGATGTGCTG+CAGCACATACCGCACGTCG ((((((((.(.((((((((+)))))))).).))))))))” yielded a Tm of 53.7 °C. With “CGACGTGCGGGATGTGCTG+CAGCACATGGCGCACGTCG (((((((((..((((((((+))))))))..)))))))))” the Tm was 57.5 °C. With “CGACGTGCACGATGTGCTG+CAGCACATTAAGCACGTCG ((((((((...((((((((+))))))))...))))))))” the Tm was 46.5 °C. In the case of “CGACGTGCGAGATGTGCTG+CAGCACATTACGCACGTCG (((((((((..((((((((+))))))))..)))))))))”, the Tm is reported as 55.4 °C. For “CGACGTGCACTATGTGCTG+CAGCACATCGAGCACGTCG ((((((((.(.((((((((+)))))))).).))))))))”, the Tm was 46.7 °C. In the case of “CGACGTGCGATATGTGCTG+CAGCACATTTTGCACGTCG ((((((((.(.((((((((+)))))))).).))))))))”, the Tm is reported as 52.5 °C. In the case of “CGACGTGCTTAATGTGCTG+CAGCACATAATGCACGTCG ((((((((.(.((((((((+)))))))).).))))))))”, the Tm is reported as 51.5 °C. Substance “CGACGTGCTGGATGTGCTG+CAGCACATTATGCACGTCG ((((((((...((((((((+))))))))...))))))))” has a Tm of 52 °C. Substance “CGACGTGCAATATGTGCTG+CAGCACATGGCGCACGTCG ((((((((...((((((((+))))))))...))))))))” has a Tm of 50.5 °C. With “CGACGTGCGTCATGTGCTG+CAGCACATTTTGCACGTCG ((((((((...((((((((+))))))))...))))))))” the Tm was 48.4 °C. “CGACGTGCTTCATGTGCTG+CAGCACATGTAGCACGTCG (((((((((.(((((((((+))))))))).)))))))))” gave a Tm of 57 °C. With “CGACGTGCCGTATGTGCTG+CAGCACATCACGCACGTCG ((((((((...((((((((+))))))))...))))))))” the Tm was 51.2 °C. In the case of “CGACGTGCGTTATGTGCTG+CAGCACATACTGCACGTCG ((((((((..(((((((((+)))))))))..))))))))”, the Tm is reported as 51.6 °C. For “CGACGTGCCGCATGTGCTG+CAGCACATCAGGCACGTCG (((((((((..((((((((+))))))))..)))))))))”, the Tm was 55.5 °C. “CGACGTGCCACATGTGCTG+CAGCACATGGAGCACGTCG ((((((((..(((((((((+)))))))))..))))))))” showed a Tm of 56.1 °C. With “CGACGTGCAGTATGTGCTG+CAGCACATGGTGCACGTCG (((((((((..((((((((+))))))))..)))))))))” the Tm was 53.9 °C. Substance “CGACGTGCCAGATGTGCTG+CAGCACATTTCGCACGTCG ((((((((.(.((((((((+)))))))).).))))))))” has a Tm of 49.6 °C. Substance “CGACGTGCGGTATGTGCTG+CAGCACATGGTGCACGTCG ((((((((...((((((((+))))))))...))))))))” has a Tm of 51.5 °C. With “CGACGTGCATAATGTGCTG+CAGCACATTTTGCACGTCG (((((((((.(((((((((+))))))))).)))))))))” the Tm was 56.1 °C. Work on “CGACGTGCGGAATGTGCTG+CAGCACATGTCGCACGTCG (((((((((..((((((((+))))))))..)))))))))” yielded a Tm of 57 °C. “CGACGTGCTGCATGTGCTG+CAGCACATTGAGCACGTCG (((((((((..((((((((+))))))))..)))))))))” showed a Tm of 52.2 °C. For “CGACGTGCCGAATGTGCTG+CAGCACATTCAGCACGTCG ((((((((.((((((((((+)))))))))).))))))))”, the Tm was 57 °C. Substance “CGACGTGCCCCATGTGCTG+CAGCACATGTTGCACGTCG ((((((((..(((((((((+)))))))))..))))))))” has a Tm of 51.8 °C. Work on “CGACGTGCTCGATGTGCTG+CAGCACATGTAGCACGTCG (((((((((..((((((((+))))))))..)))))))))” yielded a Tm of 52.3 °C. In the case of “CGACGTGCTTGATGTGCTG+CAGCACATTGCGCACGTCG ((((((((...((((((((+))))))))...))))))))”, the Tm is reported as 48.1 °C. Substance “CGACGTGCTCTATGTGCTG+CAGCACATCGTGCACGTCG ((((((((.(.((((((((+)))))))).).))))))))” has a Tm of 45.2 °C. “CGACGTGCTAGATGTGCTG+CAGCACATAGAGCACGTCG (((((((((..((((((((+))))))))..)))))))))” gave a Tm of 53.8 °C. For “CGACGTGCCTCATGTGCTG+CAGCACATGAAGCACGTCG ((((((((.((((((((((+)))))))))).))))))))”, the Tm was 56.3 °C. For “CGACGTGCGAGATGTGCTG+CAGCACATTGTGCACGTCG ((((((((...((((((((+))))))))...))))))))”, the Tm was 49.7 °C. In the case of “CGACGTGCGTTATGTGCTG+CAGCACATGCCGCACGTCG (((((((((..((((((((+))))))))..)))))))))”, the Tm is reported as 53.7 °C. “CGACGTGCGCGATGTGCTG+CAGCACATTAAGCACGTCG ((((((((...((((((((+))))))))...))))))))” gave a Tm of 55 °C. With “CGACGTGCTGGATGTGCTG+CAGCACATGGAGCACGTCG (((((((((..((((((((+))))))))..)))))))))” the Tm was 53.2 °C. In the case of “CGACGTGCGGAATGTGCTG+CAGCACATGCGGCACGTCG ((((((((.(.((((((((+)))))))).).))))))))”, the Tm is reported as 54.3 °C. With “CGACGTGCGCCATGTGCTG+CAGCACATCCCGCACGTCG (((((((((..((((((((+))))))))..)))))))))” the Tm was 50.6 °C. With “CGACGTGCCCCATGTGCTG+CAGCACATGTAGCACGTCG ((((((((..(((((((((+)))))))))..))))))))” the Tm was 51.9 °C. With “CGACGTGCTGAATGTGCTG+CAGCACATGATGCACGTCG ((((((((...((((((((+))))))))...))))))))” the Tm was 55.2 °C. Work on “CGACGTGCATGATGTGCTG+CAGCACATACAGCACGTCG ((((((((...((((((((+))))))))...))))))))” yielded a Tm of 49.5 °C. Substance “CGACGTGCCAGATGTGCTG+CAGCACATCAAGCACGTCG ((((((((..(((((((((+)))))))))..))))))))” has a Tm of 53.7 °C. Work on “CGACGTGCCGGATGTGCTG+CAGCACATTTCGCACGTCG ((((((((...((((((((+))))))))...))))))))” yielded a Tm of 49.1 °C. “CGACGTGCCCTATGTGCTG+CAGCACATGGGGCACGTCG ((((((((((.((((((((+)))))))).))))))))))” showed a Tm of 61.4 °C. “CGACGTGCATGATGTGCTG+CAGCACATTATGCACGTCG ((((((((((.((((((((+)))))))).))))))))))” gave a Tm of 57.3 °C.
